# Laboratory results published in US20090221680, “Aptamers that bind thrombin with high affinity” (published 2009).
# Target: thrombin (alpha-thrombin) (Homo sapiens, UniProt P00734;P00734 P00734:315-363,P00734:364-622)
# Test: filter
row,Binder,Kd
1,"AUGATTAGGTTGGGTAGGGTGGTAUCAU (XNA, 2'-OMe 1-4,25-28, rest DNA) [ARC2836]",0.96 nM
2,"UGCCUAGGTTGGGTAGGGTGGUGGCA (XNA, 2'-OMe 1-5,22,23,25,26, rest DNA) [ARC2837]",2.61 nM
3,"UGCCTAGGTTGGGTAGGGTGGTGGCA (XNA, 2'-OMe 1-4,23,25,26, rest DNA) [ARC2838]",0.77 nM
4,"UGCCTAGGTTGGGTAGGGTGGTGGCA (XNA, 2'-OMe 1-3,25,26, rest DNA) [ARC2839]",0.58 nM
5,TGATTAGGTTGGGTAGGGTGGTATCA (ssDNA) [ARC2840],0.25 nM
6,"UGAUUAGGTTGGGTAGGGTGGUAUCA (XNA, 2'-OMe 1-5,22-26, rest DNA) [ARC2841]",3.55 nM
7,"UGAUTAGGTTGGGTAGGGTGGTAUCA (XNA, 2'-OMe 1-4,23-26, rest DNA) [ARC2842]",1.06 nM
8,"UGATTAGGTTGGGTAGGGTGGTAUCA (XNA, 2'-OMe 1-3,24-26, rest DNA) [ARC2843]",0.62 nM
9,"GCCUAGGTTGGGTAGGGTGGUGGC (XNA, 2'-OMe 1-4,21,22,24, rest DNA) [ARC2844]",2.65 nM
10,"GCCTAGGTTGGGTAGGGTGGTGGC (XNA, 2'-OMe 1-3,22,24, rest DNA) [ARC2845]",0.86 nM
11,"GCCTAGGTTGGGTAGGGTGGTGGC (XNA, 2'-OMe 1-2,24, rest DNA) [ARC2846]",0.27 nM
12,GATTAGGTTGGGTAGGGTGGTATC (ssDNA) [ARC2847],0.21 nM
13,"GAUUAGGTTGGGTAGGGTGGUAUC (XNA, 2'-OMe 1-4,21-24, rest DNA) [ARC2848]",2.09 nM
14,"GAUTAGGTTGGGTAGGGTGGTAUC (XNA, 2'-OMe 1-3,22-24, rest DNA) [ARC2849]",0.2 nM
15,"GATTAGGTTGGGTAGGGTGGTAUC (XNA, 2'-OMe 1-2,23-24, rest DNA) [ARC2850]",0.33 nM
16,CCTCAGGGATGGTGTGGGTGGCTGAGG (ssDNA) [ARC1985],5.7 nM
17,GCTGCCTAGGTTGGGTAGGGTGGTGGCAGC (ssDNA) [ARC2170],0.19 nM
18,CTGCCTAGGTTGGGTAGGGTGGTGGCAG (ssDNA) [ARC2171],0.221 nM
19,"ACTGCCTAGGTTGGGTAGGGTGGTGGCAGT (XNA, 2'-OMe A1, rest DNA) [ARC2613]",0.173 nM
20,"ACTGCCTAGGTTGGGTAGGGTGGTGGCAGT (XNA, 2'-OMe C2, rest DNA) [ARC2614]",0.052 nM
21,"ACUGCCTAGGTTGGGTAGGGTGGTGGCAGT (XNA, 2'-OMe U3, rest DNA) [ARC2615]",0.094 nM
22,"ACTGCCTAGGTTGGGTAGGGTGGTGGCAGT (XNA, 2'-OMe G4, rest DNA) [ARC2616]",0.091 nM

row,Binder,Kd
1,"ACTGCCTAGGTTGGGTAGGGTGGTGGCAGT (XNA, 2'-OMe C6, rest DNA) [ARC2618]",0.121 nM
2,"ACTGCCUAGGTTGGGTAGGGTGGTGGCAGT (XNA, 2'-OMe U7, rest DNA) [ARC2619]",0.215 nM
3,"ACTGCCTAGGTTGGGTAGGGTGGTGGCAGT (XNA, 2'-OMe A8, rest DNA) [ARC2620]",7.1 nM
4,"ACTGCCTAGGTTGGGTAGGGTGGTGGCAGT (XNA, 2'-OMe G9, rest DNA) [ARC2621]",1.52 nM
5,"ACTGCCTAGGTTGGGTAGGGTGGTGGCAGT (XNA, 2'-OMe G10, rest DNA) [ARC2622]",0.038 nM
6,"ACTGCCTAGGUTGGGTAGGGTGGTGGCAGT (XNA, 2'-OMe U11, rest DNA) [ARC2623]",0.746 nM
7,"ACTGCCTAGGTTGGGTAGGGTGGTGGCAGT (XNA, 2'-OMe G13, rest DNA) [ARC2625]",0.568 nM
8,"ACTGCCTAGGTTGGGTAGGGTGGTGGCAGT (XNA, 2'-OMe G14, rest DNA) [ARC2626]",1.59 nM
9,"ACTGCCTAGGTTGGGUAGGGTGGTGGCAGT (XNA, 2'-OMe U16, rest DNA) [ARC2628]",0.207 nM
10,"ACTGCCTAGGTTGGGTAGGGTGGTGGCAGT (XNA, 2'-OMe G18, rest DNA) [ARC2630]",5.24 nM
11,"ACTGCCTAGGTTGGGTAGGGTGGTGGCAGT (XNA, 2'-OMe G19, rest DNA) [ARC2631]",4.96 nM
12,"ACTGCCTAGGTTGGGTAGGGTGGTGGCAGT (XNA, 2'-OMe G22, rest DNA) [ARC2634]",0.549 nM
13,"ACTGCCTAGGTTGGGTAGGGTGGTGGCAGT (XNA, 2'-OMe G23, rest DNA) [ARC2635]",0.248 nM
14,"ACTGCCTAGGTTGGGTAGGGTGGUGGCAGT (XNA, 2'-OMe U24, rest DNA) [ARC2636]",0.102 nM
15,"ACTGCCTAGGTTGGGTAGGGTGGTGGCAGT (XNA, 2'-OMe G25, rest DNA) [ARC2637]",0.118 nM
16,"ACTGCCTAGGTTGGGTAGGGTGGTGGCAGT (XNA, 2'-OMe G26, rest DNA) [ARC2638]",0.192 nM
17,"ACTGCCTAGGTTGGGTAGGGTGGTGGCAGT (XNA, 2'-OMe C27, rest DNA) [ARC2639]",0.08 nM
18,"ACTGCCTAGGTTGGGTAGGGTGGTGGCAGT (XNA, 2'-OMe A28, rest DNA) [ARC2640]",0.174 nM
19,"ACTGCCTAGGTTGGGTAGGGTGGTGGCAGT (XNA, 2'-OMe G29, rest DNA) [ARC2641]",0.171 nM
20,"ACTGCCTAGGTTGGGTAGGGTGGTGGCAGU (XNA, 2'-OMe U30, rest DNA) [ARC2642]",0.094 nM
21,"ACTGCCTAGGTTGGGTAGGGTGGTGGCAGT (ssDNA, PS between G10 and T11) [ARC2653]",0.066 nM
22,"ACTGCCTAGGTTGGGTAGGGTGGTGGCAGT (ssDNA, PS between T12 and G13) [ARC2655]",0.079 nM

row,Binder,Kd
1,"ACTGCCTAGGTTGGGTAGGGTGGTGGCAGT (ssDNA, PS between T16 and A17) [ARC2659]",0.452 nM
2,"ACTGCCTAGGTTGGGTAGGGTGGTGGCAGT (ssDNA, PS between G23 and T24) [ARC2666]",0.992 nM
3,"ACUGCCUAGGTTGGGTAGGGTGGUGGCAGU (XNA, 2'-OMe 1-7,24,25,27-30, rest DNA) [ARC2823]",9.1 nM
4,"ACUGCCTAGGTTGGGTAGGGTGGTGGCAGU (XNA, 2'-OMe 1-6,25,27-30, rest DNA) [ARC2824]",0.73 nM
5,"ACUGCCTAGGTTGGGTAGGGTGGTGGCAGU (XNA, 2'-OMe 1-5,27-30, rest DNA) [ARC2825]",1.03 nM
6,AATGATTAGGTTGGGTAGGGTGGTATCATT (ssDNA) [ARC2826],0.77 nM
7,"AAUGAUUAGGTTGGGTAGGGTGGUAUCAUU (XNA, 2'-OMe 1-7,24-30, rest DNA) [ARC2827]",4.06 nM
8,"AAUGAUTAGGTTGGGTAGGGTGGTAUCAUU (XNA, 2'-OMe 1-6,25-30, rest DNA) [ARC2828]",0.33 nM
9,"AAUGATTAGGTTGGGTAGGGTGGTAUCAUU (XNA, 2'-OMe 1-5,26-30, rest DNA) [ARC2829]",0.93 nM
10,"CUGCCUAGGTTGGGTAGGGTGGUGGCAG (XNA, 2'-OMe 1-6,23,24,26-28, rest DNA) [ARC2830]",15.3 nM
11,"CUGCCTAGGTTGGGTAGGGTGGTGGCAG (XNA, 2'-OMe 1-5,24,26-28, rest DNA) [ARC2831]",5.12 nM
12,"CUGCCTAGGTTGGGTAGGGTGGTGGCAG (XNA, 2'-OMe 1-4,26-28, rest DNA) [ARC2832]",1.88 nM
13,ATGATTAGGTTGGGTAGGGTGGTATCAT (ssDNA) [ARC2833],2.16 nM
14,"AUGAUUAGGTTGGGTAGGGTGGUAUCAU (XNA, 2'-OMe 1-6,23-28, rest DNA) [ARC2834]",10.3 nM
15,"AUGAUTAGGTTGGGTAGGGTGGTAUCAU (XNA, 2'-OMe 1-5,24-28, rest DNA) [ARC2835]",1.27 nM
16,"ACTGCCTAGGTTGGGTAGGGTGGTGGCAGT (ssDNA, PS linkage between nt 2 and 3) [ARC2645]",0.167 nM
17,"ACTGCCTAGGTTGGGTAGGGTGGTGGCAGT (ssDNA, PS linkage between nt 13 and 14) [ARC2656]",0.151 nM
18,"ACTGCCTAGGTTGGGTAGGGTGGTGGCAGT (ssDNA, PS linkage between nt 14 and 15) [ARC2657]",0.219 nM
19,"ACTGCCTAGGTTGGGTAGGGTGGTGGCAGT (ssDNA, PS linkage between nt 15 and 16) [ARC2658]",0.253 nM
20,"ACTGCCTAGGTTGGGTAGGGTGGTGGCAGT (ssDNA, PS linkage between nt 17 and 18) [ARC2660]",0.23 nM
21,"ACTGCCTAGGTTGGGTAGGGTGGTGGCAGT (ssDNA, PS linkage between nt 18 and 19) [ARC2661]",0.246 nM
